Source: ChEMBL document CHEMBL1177690, “Target-specific control of lymphoid-specific protein tyrosine phosphatase (Lyp) activity” (Bioorg Med Chem, 2010)

Key:
[1] = substrate: O=C(O)c1ccccc1-c1c2ccc(=O)c([As]3SCCS3)c-2oc2c([As]3SCCS3)c(O)ccc12; test: Activity at Lyp expressed in Escherichia coli using DADEpYLIPQQG as a substrate […]
[2] = substrate: O=C(O)c1ccccc1-c1c2ccc(=O)c([As]3SCCS3)c-2oc2c([As]3SCCS3)c(O)ccc12; test: Activity at Lyp expressed in Escherichia coli using pNPP as a substrate […]

B1: Tyrosine-protein phosphatase non-receptor type 22 (Homo sapiens), Q9Y2R2 (protein)
chain: MDQREILQKFLDEAQSKKITKEEFANEFLKLKRQSTKYKADKTYPTTVAEKPKNIKKNRYKDILPYDYSRVELSLITSDEDSSYINANFIKGVYGPKAYIATQGPLSTTLLDFWRMIWEYSVLIIVMACMEYEMGKKKCERYWAEPGEMQLEFGPFSVSCEAEKRKSDYIIRTLKVKFNSETRTIYQFHYKNWPDHDVPSSIDPILELIWDVRCYQEDDSVPICIHCSAGCGRTGVICAIDYTWMLLKDGIIPENFSVFSLIREMRTQRPSLVQTQEQYELVYNAVLELFKRQMDVIRDKHSGTESQAKHCIPEKNHTLQADSYSPNLPKSTTKAAKMMNQQRTKMEIKESSSFDFRTSEISAKEELVLHPAKSSTSFDFLELNYSFDKNADTTMKWQTKAFPIVGEPLQKHQSLDLGSLLFEGCSNSKPVNAAGRYFNSKVPITRTKSTPFELIQQRETKEVDSKENFSYLESQPHDSCFVEMQAQKVMHVSSAELNYSLPYDSKHQIRNASNVKHHDSSALGVYSYIPLVENPYFSSWPPSGTSSKMSLDLPEKQDGTVFPSSLLPTSSTSLFSYYNSHDSLSLNSPTNISSLLNQESAVLATAPRIDDEIPPPLPVRTPESFIVVEEAGEFSPNVPKSLSSAVKVKIGTSLEWGGTSEPKKFDDSVILRPSKSVKLRSPKSELHQDRSSPPPPLPERTLESFFLADEDCMQAQSIETYSTSYPDTMENSTSSKQTLKTPGKSFTRSKSLKILRNMKKSICNSCPPNKPAESVQSNNSSSFLNFGFANRFSKPKGPRNPPPTWNI
For B1, the kcat [1] was 3.84 s⁻¹ and the kcat [2] was 0.49 s⁻¹.
